Reference: US10995116B2, “Peptide-induced NK cell activation” (University of Southampton, priority 2014, dated 2021)
Where two headings read alike, the source gives them in different places.

What was measured:
KIR2DS2 [1] = biological target: T1, KIR2DS2 (Homo sapiens, UniProt P43631); assay: pVav1/Vav1 Western blot, KIR2DS2-transfected NK cell line plus peptide-loaded HLA-C*0304:ICP47:721.221 cells; type: cell-based; set-up: expressed in transfected cells; host or cells: NKL cell line transfected with KIR2DS2; target cells L721.221-HLA-C*0304-ICP47; details: peptide 20 μM, 5 minutes
Description: FIG. 7 1×10^6 L721.221-HLA-C*0304-ICP47 cells were incubated overnight at 26° C. with indicated peptides at a concentration of 20 μM. The cells were then incubated with the NKL cell line transfected with KIR2DS2 or transfected with KIR2DL2 for 5 minutes. The cells were lysed in 1% NP-40 and then analysed by Western blotting using antibodies to pVav1 and then following stripping of the membrane to Vav1. Shown are Western blots around the 98 kDa region, and below them the corresponding densitometries for 2 independent experiments.
With reference to FIG. 7, 1×10^6 HLA-C*0304:ICP47:721.221 cells were incubated overnight at 26° C. with indicated peptides at a concentration of 20 μM. The cells were then incubated with the NK cell line transfected with KIR2DS2 for 5 minutes. The cells were lysed in 1% NP-40 and then analysed by Western blotting using antibodies to pVav1 and then following stripping of the membrane to Vav1. Shown is a Western blots around the 98kDa region, and below them the corresponding densitometries for 3 independent experiments.
Target sequence in this assay (P43631 22-304): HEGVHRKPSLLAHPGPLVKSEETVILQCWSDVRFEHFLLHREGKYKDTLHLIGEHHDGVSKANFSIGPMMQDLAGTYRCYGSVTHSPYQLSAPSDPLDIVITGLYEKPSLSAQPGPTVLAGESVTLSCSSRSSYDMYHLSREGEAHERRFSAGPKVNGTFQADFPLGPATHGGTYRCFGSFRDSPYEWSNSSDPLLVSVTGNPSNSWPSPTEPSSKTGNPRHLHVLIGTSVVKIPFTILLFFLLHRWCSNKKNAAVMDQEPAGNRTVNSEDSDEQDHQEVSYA

HLA-Cw*0102 [2] = biological target: T2, HLA-Cw*0102 (Homo sapiens, UniProt P10321, A176E/A330V/A35S/A97T/C350S/D114A/D33F/L171W/L180R/L218V/M285V/M309V/M331V/P208H/Q277E/Q291P/R121W/R243W/R30K/S123C/S140Y/S297R/T329A/T363A/V272M/V319A); details: control peptide, stated as known; cited from earlier work
HLA-Cw*0102 [3] = biological target: T2, HLA-Cw*0102; assay: Peptide binding to HLA-Cw*0102: cell surface MHC class I staining of L721.174 cells by flow cytometry; type: cell-based; details: increasing peptide concentrations, overnight at 26° C.
Description: The HLA-Cw*0102-positive cell line L721.174 was incubated with increasing concentrations of the LNPSVAATL (SEQ ID NO: 1) peptide or a control peptide VAPWNSLSL (SEQ ID NO: 48). Cells were stained for cell surface of MHC class I and analysed by flow cytometry. The mean fluorescence intensity of cell surface MHC Class I was plotted against the peptide concentration.
With reference to FIG. 1, the HLA-Cw*0102-positive cell line L721.174 was incubated with increasing concentrations of the LNPSVAATL (SEQ ID NO: 1) peptide or a control peptide VAPWNSLSL (SEQ ID NO: 48) (known to bind HLA-Cw*0102) overnight at 26° C. 3×10^5 cells were used per condition. Following washing in PBS the cells were stained for cell surface of MHC class I and analysed by flow cytometry. The mean fluorescence intensity of cell surface MHC Class I was plotted against the peptide concentration.

[4] = system: NK cells from KIR2DS2-positive or KIR2DS2-negative donor; assay: CD107a (LAMP) degranulation of CH-L antibody positive NK cells cultured with peptide-loaded L721.174 cells; type: cell-based
Description: A. cells were incubated in the presence or absence of peptides, and then cultured with NK cells from either a KIR2DS2-positive or KIR2DS2-negative donor. The level of CD107a (LAMP) expression was measured on NK cells positive for the CH-L antibody. This antibody binds to KIR2DS2, KIR2DL2 and KIR2DL3. B. Summary data from 5 KIR2DS2-positive and 6 KIR2DS2-negative donors tested as per panel A of FIG. 2. To compare the different donors the data are normalized to 100% for the no peptide condition.
With reference to FIG. 2A, 3×10^5 L721.174 cells were incubated at 26° C. overnight in the presence or absence of peptides, and then cultured for four hours with NK cells from either a KIR2DS2-positive or KIR2DS2-negative donor. The level of CD107a (LAMP) expression was measured on NK cells positive for the CH-L antibody. This antibody binds to KIR2DS2, KIR2DL2 and KIR2DL3. […] With reference to FIG. 2B, summary data from 5 KIR2DS2-positive and 6 KIR2DS2-negative donors were tested as per panel A of FIG. 2. To compare the different donors the data are normalized to 100% for the no peptide condition.

[5] = system: NK cells expressing KIR2DS2; assay: pVav1/Vav1 Western blot, NK cell line transfected with KIR2DS2 or KIR2DL2 plus peptide-loaded L721.174 cells; type: cell-based; details: peptide 20 μM, 5 minutes
Description: (§1) FIG. 6 LNPSVAATL (SEQ ID NO: 1) activates NK cells expressing KIR2DS2. A. L721.174 cells were incubated with indicated peptides. The cells were then incubated with the NK cell line transfected with KIR2DS2. The cells were lysed and the KIR2DS2 was then immunoprecipitated from the mixture using the GL183 antibody coupled to protein-G beads. The immune precipitate was analysed by Western blotting using a phosphotyrosine antibody. The membrane was then stripped and reprobed with an antibody to DAP12 the molecule that transduces a positive signal from KIR2DS2. Shown are the regions on the blots at the level of DAP12 (12-15kDa). B. L721.174 cells were incubated with indicated peptides. The cells were then incubated with the NK cell line transfected with KIR2DS2 or transfected with KIR2DL2. The cells were lysed in 1% NP-40 and then analysed by Western blotting using antibodies to pVav1 and then following stripping of the membrane to Vav1. […]
(§2) With reference to FIG. 6A, 1×10^6 L721.174 cells were incubated overnight at 26° C. with indicated peptides at a concentration of 20 μM. […] The immune precipitate was analysed by Western blotting using a phosphotyrosine antibody. […] The cells were lysed in 1% NP-40 and then analysed by Western blotting using antibodies to pVav1 and then following stripping of the membrane to Vav1. […]

KIR2DS2 [6] = biological target: T1, KIR2DS2; assay: KIR2DS2-PE tetramer staining of peptide-loaded L721.174 cells by flow cytometry; type: binding; set-up: made in house; details: peptide 200 μM overnight at 26° C.
Description: (SEQ ID NO: 1) peptide. A. The KIR2DS2 protein was expressed with a biotinylation C-terminal tag. Following biotinylation with the BirA enzyme, the KIR2DS2 protein was incubated with streptavidin-phycoerythrin to form fluorescent KIR2DS2-tetramers (KIR2DS2-PE). L721.174 cells were then incubated with indicated peptides. Cells were then stained with KIR2DS2-PE and analysed by flow cytometry. Shown are histogram plots. The bold numbers represent the mean fluorescent staining intensity of the KIR2DS2-PE staining of the cells in the presence of peptide and the non-bold numbers the staining in the absence of peptide. B. Represents the mean and standard error fluorescent intensities of the experiment in “A” following replicate experiments.
A. L721.174 cells were incubated with indicated peptides. Cells were then stained with KIR2DS2-PE (see FIG. 4) and analysed by flow cytometry. Shown are histogram plots. […]
With reference to FIG. 4A, the KIR2DS2 protein was expressed as a recombinant protein with a biotinylation C-terminal tag. […] Cells were then stained with KIR2DS2-PE and analysed by flow cytometry. […]
With reference to FIG. 5A, 3×10^5 L721.174 cells were incubated overnight at 26° C. with indicated peptides at a concentration of 200 μM. Cells were then stained with KIR2DS2-PE (see FIG. 4) and analysed by flow cytometry. […]
Target sequence in this assay (P43631 22-245 limits assumed): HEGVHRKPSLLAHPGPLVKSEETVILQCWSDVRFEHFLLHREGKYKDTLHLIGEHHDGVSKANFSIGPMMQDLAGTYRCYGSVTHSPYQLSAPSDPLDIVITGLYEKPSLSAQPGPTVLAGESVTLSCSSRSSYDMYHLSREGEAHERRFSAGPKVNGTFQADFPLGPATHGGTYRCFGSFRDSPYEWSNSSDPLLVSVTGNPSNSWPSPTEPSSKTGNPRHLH

HLA-C*0102 = HLA-C*0102 (Homo sapiens, UniProt P10321, A176E/A330V/A35S/A97T/C350S/D114A/D33F/L171W/L180R/L218V/M285V/M309V/M331V/P208H/Q277E/Q291P/R121W/R243W/R30K/S123C/S140Y/S297R/T329A/T363A/V272M/V319A); assay: HPLC of HLA-C binding peptides eluted from 721.221 cells expressing HLA-C*0102:T2A:E19/3K:LNPSVAATL; details: peak in the eluate at the retention time of the control peptide
Description: FIG. 8 The MHC class I-negative 721.221 cell line was transfected with a construct expressing HLA-C*0102:T2A:E19/3K:LNPSVAATL (SEQ ID NO: 1). The cells were washed and then the HLA-C binding peptides eluted using 10% acetic acid. The eluate was analysed by HPLC using a C18 column and a 4-60% acetonitrile gradient. The resulting profile was compared to the profile of the LNPSVAATL (SEQ ID NO: 1) peptide alone. The peptide elution peak is indicated with an arrow.
The cell line 721.221 expressing HLA-C*0102:T2A:E19/3K:LNPSVAATL. Following elution of the HLA-C binding peptides using 10% acetic acid the peptides were analysed by HPLC using a C18 column and an acetonitrile gradient.

L721.174 cells = assay: Cytotoxicity of NK cell clones against peptide-loaded L721.174 cells (Live/Dead fixable far-red stain); type: cell-based; details: KIR2DS2-positive NK cell clones 4, 6, 9 only; not KIR2DS2-negative clone 27
Description: L721.174 cells were incubated in the presence or absence of the peptides VAPWNSFAL (SEQ ID NO: 49) and the LNPSVAATL (SEQ ID NO: 1). The cells were then labeled with the cell tracker orange dye, and then cultured with KIR2DS2-positive NK cell clones (clones 4,6,9) or a KIR2DS2-negative NK cell clone (clone 27). Cytotoxicity was then determined using Live/Dead® fixable far-red stain.
With reference to FIG. 3, 3×10^5 L721.174 cells were incubated at 26° C. overnight in the presence or absence of the peptides VAPWNSFAL (SEQ ID NO: 49) and the LNPSVAATL (SEQ ID NO: 1). The cells were then labeled with the cell tracker orange dye, and then cultured for four hours with KIR2DS2-positive NK cell clones (clones 4,6,9) or a KIR2DS2-negative NK cell clone (clone 27). Cytotoxicity was then determined using Live/Dead® fixable far-red stain.

DAP12 = DAP12 phosphorylation: KIR2DS2 immunoprecipitation and phosphotyrosine Western blot, NK cell line transfected with KIR2DS2 plus peptide-loaded L721.174 cells; type: cell-based; details: peptide 20 μM, 5 minutes
Description: as §1, §2

Sequence: GAVPDLATL (listed as Homo sapiens)
- activation of KIR2DS2 (pVav1) (KIR2DS2 [1]): Activated

Sequence: VAPWNSLSL (listed as Homo sapiens)
- binding to HLA-Cw*0102 (HLA-Cw*0102 [2]): known to bind

Sequence: LNPSVAATL (listed as Homo sapiens)
- binding to HLA-Cw*0102 (HLA-Cw*0102 [3]): Binds
- level of CD107a degranulation as compared to no peptide ([4]; NK cells from KIR2DS2-positive donors): higher levels of degranulation
- level of CD107a degranulation as compared to the VAPWNSFAL peptide alone ([4]; NK cells from KIR2DS2-positive donors, LNPSVAATL in combination with VAPWNSFAL): higher levels of degranulation
- activation of NK cells expressing KIR2DS2 [5]: Activates
- KIR2DS2 binding to HLA-C*0102 and peptide (KIR2DS2-PE staining) (KIR2DS2 [6]): Binds
- endogenous processing and presentation from construct (HLA-C*0102): endogenously processed and presented
- killing of L721.174 cells as compared to no peptide or the VAPWNSFAL peptide (L721.174 cells): killed the L721.174 cell line to greater extent
- phosphorylation of DAP12 (DAP12): induces phosphorylation of DAP12

Sequence: GAVPDLAWL (listed as Homo sapiens)
- activation of KIR2DS2 (pVav1) (KIR2DS2 [1]): Activated

Sequence: VAPWNSFAL (listed as Homo sapiens) [reference compound]
- level of CD107a degranulation as compared to no peptide ([4]; NK cells from both donors (KIR2DS2-positive and KIR2DS2-negative)): lower levels of degranulation
